B2: FLAG-Sestrin3 (other)
chain: MNRGGGSPSAAANYLLCTNCRKVLRKDKRIRVSQPLTRGPSAFIPEKEVVQANTVDERTNFLVEEYSTSGRLDNITQVMSLHTQYLESFLRSQFYMLRMDGPLPLPYRHYIAIMAAARHQCSYLINMHVDEFLKTGGIAEWLNGLEYVPQRLKNLNEINKLLAHRPWLITKEHIQKLVKTGENNWSLPELVHAVVLLAHYHALASFVFGSGINPERDPEISNGFRLISVNNFCVCDLANDNNIENASLSGSNFGIVDSLSELEALMERMKRLQEEREDEEASQEEMSTRFEKEKKESLFVVSGDTFHSFPHSDFEDDMIITSDVSRYIEDPGFGYEDFARRGEEHLPTFRAQDYTWENHGFSLVNRLYSDIGHLLDEKFRMVYNLTYNTMATHEDVDTTMLRRALFNYVHCMFGIRYDDYDYGEVNQLLERSLKVYIKTVTCYPERTTKRMYDSYWRQFKHSEKVHVNLLLMEARMQAELLYALRAITRHLT
notes: also called recombinant, FLAG-tagged Sestrin3; not shown: FLAG tag
B3: FLAG-Sestrin2 (other)
chain: MIVADSECRAELKDYLRFAPGGVGDSGPGEEQRESRARRGPRGPSAFIPVEEVLREGAESLEQHLGLEALMSSGRVDNLAVVMGLHPDYFTSFWRLHYLLLHTDGPLASSWRHYIAIMAAARHQCSYLVGSHMAEFLQTGGDPEWLLGLHRAPEKLRKLSEINKLLAHRPWLITKEHIQALLKTGEHTWSLAELIQALVLLTHCHSLSSFVFGCGILPEGDADGSPAPQAPTPPSEQSSPPSRDPLNNSGGFESARDVEALMERMQQLQESLLRDEGTSQEEMESRFELEKSESLLVTPSADILEPSPHPDMLCFVEDPTFGYEDFTRRGAQAPPTFRAQDYTWEDHGYSLIQRLYPEGGQLLDEKFQAAYSLTYNTIAMHSGVDTSVLRRAIWNYIHCVFGIRYDDYDYGEVNQLLERNLKVYIKTVACYPEKTTRRMYNLFWRHFRHSEKVHVNLLLLEARMQAALLYALRAITRYMT
notes: Transiently or stably expressed in HEK-293T cells; also called FLAG-tagged wild-type Sestrin2; wild-type Sestrin2; not shown: FLAG tag
B5: metap2 control protein (enzyme, UniProt P50579 1-478, looked up, not shown: small tags and cut ends)
chain: MAGVEEVAASGSHLNGDLDPDDREEGAASTAEEAAKKKRRKKKKSKGPSAAGEQEPDKESGASVDEVARQLERSALEDKERDEDDEDGDGDGDGATGKKKKKKKKKRGPKVQTDPPSVPICDLYPNGVFPKGQECEYPPTQDGRTAAWRTTSEEKKALDQASEEIWNDFREAAEAHRQVRKYVMSWIKPGMTMIEICEKLEDCSRKLIKENGLNAGLAFPTGCSLNNCAAHYTPNAGDTTVLQYDDICKIDFGTHISGRIIDCAFTVTFNPKYDTLLKAVKDATNTGIKCAGIDVRLCDVGEAIQEVMESYEVEIDGKTYQVKPIRNLNGHSIGQYRIHAGKTVPIVKGGEATRMEEGEVYAIETFGSTGKGVVHDDMECSHYMKNFDVGHVPIRLPRTKHLLNVINENFGTLAFCRRWLDRLGESKYLMALKNLCDLGIVDPYPPLCDIKGSYTAQFEHTILLRPTCKEVVSRGDDY
notes: Control protein; also called FLAG-Metap2; FLAG-metap2

How the values were obtained:
[1] = biological target: T1, GATOR1, recombinant (HA-Depdc5, HA-Npr13, HA-Npr12) (UniProt O75140 1-1603; Q8WTW4 1-380; Q12980 1-569, limits assumed); experiment: anti-FLAG co-immunoprecipitation, transient co-expression in HEK-293T, immunoblot (FIG. 1B)
T1 construct: also called GATOR1 multi-protein complex; not shown: HA tag
T1 sequence (O75140 whole entry, chain 1 of 3): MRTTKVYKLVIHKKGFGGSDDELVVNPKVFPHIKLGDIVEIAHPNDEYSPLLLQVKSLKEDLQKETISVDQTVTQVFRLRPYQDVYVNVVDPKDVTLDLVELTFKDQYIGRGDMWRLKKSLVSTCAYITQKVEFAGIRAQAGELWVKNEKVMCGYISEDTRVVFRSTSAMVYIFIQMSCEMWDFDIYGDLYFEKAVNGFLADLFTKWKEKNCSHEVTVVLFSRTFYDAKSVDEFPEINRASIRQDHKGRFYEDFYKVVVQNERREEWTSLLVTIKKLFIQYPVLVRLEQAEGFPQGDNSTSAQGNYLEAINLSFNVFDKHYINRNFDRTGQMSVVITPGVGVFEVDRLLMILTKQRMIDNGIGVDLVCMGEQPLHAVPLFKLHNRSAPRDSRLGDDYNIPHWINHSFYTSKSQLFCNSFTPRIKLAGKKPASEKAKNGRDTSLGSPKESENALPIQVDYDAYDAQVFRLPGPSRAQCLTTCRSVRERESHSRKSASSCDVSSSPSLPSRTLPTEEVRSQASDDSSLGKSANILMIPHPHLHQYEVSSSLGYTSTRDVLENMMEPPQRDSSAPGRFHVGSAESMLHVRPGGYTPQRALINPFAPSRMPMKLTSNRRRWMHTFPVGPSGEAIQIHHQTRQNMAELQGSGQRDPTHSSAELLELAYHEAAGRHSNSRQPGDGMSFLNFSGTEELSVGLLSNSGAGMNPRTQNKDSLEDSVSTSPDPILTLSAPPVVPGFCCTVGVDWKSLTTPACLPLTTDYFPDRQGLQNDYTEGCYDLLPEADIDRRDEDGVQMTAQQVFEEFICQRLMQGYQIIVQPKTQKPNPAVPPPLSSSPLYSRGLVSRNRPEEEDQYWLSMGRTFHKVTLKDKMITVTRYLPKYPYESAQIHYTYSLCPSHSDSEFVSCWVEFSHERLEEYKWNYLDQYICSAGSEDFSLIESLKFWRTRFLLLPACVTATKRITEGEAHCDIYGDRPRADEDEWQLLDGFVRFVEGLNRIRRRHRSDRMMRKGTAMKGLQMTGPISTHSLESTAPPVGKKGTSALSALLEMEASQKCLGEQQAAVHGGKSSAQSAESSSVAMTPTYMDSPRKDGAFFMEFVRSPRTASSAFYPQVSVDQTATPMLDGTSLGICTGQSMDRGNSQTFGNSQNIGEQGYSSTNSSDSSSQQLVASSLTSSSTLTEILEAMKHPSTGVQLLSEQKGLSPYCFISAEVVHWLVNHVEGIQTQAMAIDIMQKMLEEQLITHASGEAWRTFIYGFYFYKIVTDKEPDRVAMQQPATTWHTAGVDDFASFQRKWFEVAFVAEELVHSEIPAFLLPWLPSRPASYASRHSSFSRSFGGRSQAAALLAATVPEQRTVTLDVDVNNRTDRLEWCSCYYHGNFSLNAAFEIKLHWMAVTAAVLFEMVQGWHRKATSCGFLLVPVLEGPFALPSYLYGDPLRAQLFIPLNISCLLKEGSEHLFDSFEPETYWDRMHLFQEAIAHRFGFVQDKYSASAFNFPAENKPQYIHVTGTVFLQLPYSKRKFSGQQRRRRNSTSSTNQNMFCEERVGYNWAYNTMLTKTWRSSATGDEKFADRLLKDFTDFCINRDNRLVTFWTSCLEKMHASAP
T1 sequence (Q8WTW4 whole entry, chain 2 of 3): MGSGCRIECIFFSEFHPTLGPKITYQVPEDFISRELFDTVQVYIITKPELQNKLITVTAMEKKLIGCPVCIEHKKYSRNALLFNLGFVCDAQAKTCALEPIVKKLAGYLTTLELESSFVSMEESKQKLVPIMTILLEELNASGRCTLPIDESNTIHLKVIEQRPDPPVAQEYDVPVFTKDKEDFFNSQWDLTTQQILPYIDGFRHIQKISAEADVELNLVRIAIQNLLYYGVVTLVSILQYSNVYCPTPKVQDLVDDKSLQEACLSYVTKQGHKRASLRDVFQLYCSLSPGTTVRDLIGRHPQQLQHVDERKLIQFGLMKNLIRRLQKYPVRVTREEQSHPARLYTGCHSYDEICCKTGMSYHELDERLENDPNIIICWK
T1 sequence (Q12980 whole entry, chain 3 of 3): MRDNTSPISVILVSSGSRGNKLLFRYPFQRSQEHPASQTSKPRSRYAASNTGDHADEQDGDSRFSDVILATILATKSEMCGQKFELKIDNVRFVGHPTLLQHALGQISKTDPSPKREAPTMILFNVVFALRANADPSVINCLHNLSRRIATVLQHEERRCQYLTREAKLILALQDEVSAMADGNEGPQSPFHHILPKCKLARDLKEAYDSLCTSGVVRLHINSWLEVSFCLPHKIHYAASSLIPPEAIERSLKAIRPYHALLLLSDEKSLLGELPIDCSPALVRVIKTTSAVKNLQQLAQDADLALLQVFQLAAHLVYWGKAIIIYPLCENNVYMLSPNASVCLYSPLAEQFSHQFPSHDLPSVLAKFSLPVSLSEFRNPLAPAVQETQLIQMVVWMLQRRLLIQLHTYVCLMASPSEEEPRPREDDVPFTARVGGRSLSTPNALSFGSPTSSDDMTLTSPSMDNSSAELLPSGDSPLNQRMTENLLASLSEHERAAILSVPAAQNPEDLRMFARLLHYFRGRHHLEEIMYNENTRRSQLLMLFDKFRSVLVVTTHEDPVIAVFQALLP
Experimental: (§1) Two million HEK-293T cells were plated in 10 cm culture dishes and grown. Twenty-four hours later, cells were transfected via the polyethylenimine method (Boussif et al., 1995) with one or more of the pRK5-based cDNA expression plasmids in the following amounts: 300 ng FLAG-Metap2, 100 ng FLAG-WDR24, 50 ng FLAG-Sestrin1, 25 ng FLAG-Sestrin2, 200 ng FLAG-Sestrin3, 2 ng of FLAG-S6K1, or 200 ng each of HA-Mios, HA-WDR59, HA-WDR24, HA-Sec13, HA-Seh1L, HA-Depdc5, HA-Npr13, or HA-Npr12. The total amount of plasmid DNA in each transfection was normalized to 5 μg with empty pRK5.
(§2) The beads were washed 3 times with lysis buffer containing 500 mM NaCl. In the case of transient cotransfection assays to explore the interaction of the Sestrins with GATOR2, beads were incubated in the final salt wash for 30 minutes to reduce non-specific binding.

metap2 control protein = biological target: B5; experiment: as above
Experimental: as §1, §2

[2] = biological target: T2, FLAG-DEPDCS, a GATOR1 component (UniProt O75140 1-1603, limits assumed); experiment: anti-FLAG co-immunoprecipitation from stably expressing HEK-293T, immunoblot (FIG. 5A)
T2 construct: also called FLAG-DEPDC5; not shown: FLAG tag
T2 sequence (O75140 whole entry): as the sequence (O75140 whole entry, chain 1 of 3) above

FLAG-Sestrin3 = biological target: B2; experiment: anti-FLAG co-immunoprecipitation, transient co-expression in HEK-293T, immunoblot (FIG. 1B)
Experimental: as §1, §2

FLAG-Sestrin2 = biological target: B3; experiment: as above
Experimental: as §1, §2

B1: FLAG-Sestrin1 (other)
chain: MAEGENEVRWDGLCSRDSTTRETALENIRQTILRKTEYLRSVKETPHRPSDGLSNTESSDGLNKLLAHLLMLSKRCPFKDVREKSEFILKSIQELGIRIPRPLGQGPSRFIPEKEILQVGSEDAQMHALFADSFAALGRLDNITLVMVFHPQYLESFLKTQHYLLQMDGPLPLHYRHYIGIMAAARHQCSYLVNLHVNDFLHVGGDPKWLNGLENAPQKLQNLGELNKVLAHRPWLITKEHIEGLLKAEEHSWSLAELVHAVVLLTHYHSLASFTFGCGISPEIHCDGGHTFRPPSVSNYCICDITNGNHSVDEMPVNSAENVSVSDSFFEVEALMEKMRQLQECRDEEEASQEEMASRFEIEKRESMFVFSSDDEEVTPARAVSRHFEDTSYGYKDFSRHGMHVPTFRVQDYCWEDHGYSLVNRLYPDVGQLIDEKFHIAYNLTYNTMAMHKDVDTSMLRRAIWNYIHCMFGIRYDDYDYGEINQLLDRSFKVYIKTVVCTPEKVTKRMYDSFWRQFKHSEKVHVNLLLIEARMQAELLYALRAITRYMT
notes: also called recombinant, FLAG-tagged Sestrin1; not shown: FLAG tag
[1]
  binding result: no binding
metap2 control protein
  binding result: no binding

## B2
[1]
  binding result: no binding

## B3
[1]
  binding result: no binding

B4: endogenous Sestrin2 (other)
chain: MIVADSECRAELKDYLRFAPGGVGDSGPGEEQRESRARRGPRGPSAFIPVEEVLREGAESLEQHLGLEALMSSGRVDNLAVVMGLHPDYFTSFWRLHYLLLHTDGPLASSWRHYIAIMAAARHQCSYLVGSHMAEFLQTGGDPEWLLGLHRAPEKLRKLSEINKLLAHRPWLITKEHIQALLKTGEHTWSLAELIQALVLLTHCHSLSSFVFGCGILPEGDADGSPAPQAPTPPSEQSSPPSRDPLNNSGGFESARDVEALMERMQQLQESLLRDEGTSQEEMESRFELEKSESLLVTPSADILEPSPHPDMLCFVEDPTFGYEDFTRRGAQAPPTFRAQDYTWEDHGYSLIQRLYPEGGQLLDEKFQAAYSLTYNTIAMHSGVDTSVLRRAIWNYIHCVFGIRYDDYDYGEVNQLLERNLKVYIKTVACYPEKTTRRMYNLFWRHFRHSEKVHVNLLLLEARMQAALLYALRAITRYMT
notes: Endogenous protein of human HEK-293T cells
[2]
  binding result: no binding

## B5
FLAG-Sestrin3
  binding result: no binding
FLAG-Sestrin2
  binding result: no binding
